According to the supplement of paper PMC9170038:

Test system: MS2 coat protein
Test: apparent KD of MS2 coat protein; designed switch direction (-1 OFF switch, 1 ON switch): -1; higher = weaker reporter binding
How it was run: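 Apparent KD, taken as the median over clusters for each design, was obtained by curve-fitting normalised cluster fluorescence. Designed RNA switches had been transcribed on Illumina chips by stalled E. coli RNA polymerase and titrated with SNAP-549-labelled MS2 coat protein, doubling from 0.7 or 1.5 nM to 3 µM.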

[1] = input ligand: microRNA oligo, concentration not stated
[2] = Eterna round: R95, input ligand: FMN 200 uM
[3] = Eterna round: R95, input ligand: microRNA oligo, concentration not stated
[4] = Eterna round: R95, input ligand: none

Sequence	apparent KD of MS2 coat protein (input ligand: FMN 200 uM)	apparent KD of MS2 coat protein (input ligand: none)	apparent KD of MS2 coat protein [1]	apparent KD of MS2 coat protein [2]	apparent KD of MS2 coat protein [3]	apparent KD of MS2 coat protein [4]
GCAGCAUUAGGAUAUUGCUAAUGUAACAUGAGGAUCACCCAUGUGUGUCGUUAUUACUUAUAAGAAGGAAUGUGCC [Eternabot (L2) Solution 88] (Eterna round: R97, puzzle: Exclusion 5)	24.9 nM	36.4 nM	–	–	–	–
GCAGCGUAGUCCAAAUAGGACAUACAUGAGGAUCACCCAUGUCAGGAUAUGGUCUGGAUUACAGGCCAGAAGGGACAAAGCUGC [Eli exng3 - 003] (Eterna round: R96, puzzle: Exclusion NG 3)	19 nM	26 nM	15.8 nM	–	–	–
GCAGCGUAGUCUAAAUAAGACAUACAUGAGGAUCACCCAUGUCAGGAUAUGGUCUGGAUUACAGGCCAGAAGGGACAAAGCUGC [Eli exng3 - 002] (Eterna round: R96, puzzle: Exclusion NG 3)	21.4 nM	17.7 nM	16.5 nM	–	–	–
GCAGCGUAUGUAGGAUAUCGGUCAGUUUCUGAUCGAGAAGGACAUGAGGAUCACCCAUGUAUAUUCUAGCGUGAGCUAGGCUGC [JL ENG1 3.70] (Eterna round: R96, puzzle: Exclusion NG 1)	–	–	14.3 nM	–	–	–
GCAGCUAAUGCAGGAUAUCAGCACGUUUAGUGCUGAGAAGGGCACAUGAGGAUCACCCAUGUGAUCAAUUAAUAUUAAUGCUGC [ENG1/11-B2] (Eterna round: R96, puzzle: Exclusion NG 1)	152 nM	31 nM	23.1 nM	–	–	–
GCAGCUUAGUUAACAGACUGUUACAUGAGGAUCACCCAUGUGCAGGAUAUGGUCUGGAUUACAGGCCAGAAGGGUACAGGCUGC [Eli exng3 - 017] (Eterna round: R96, puzzle: Exclusion NG 3)	10.8 nM	13.4 nM	6.6 nM	–	–	–
GCAGGAUAAGUGAGGAUAUACCUAUGGAUACAUAGGUAGAAGGCACAUGAGGAUCACCCAUGUUCCUUACCUGC [Fiskers BMX 4 - 66] (puzzle: Brourd's mod of Exclusion 4)	–	–	–	42 nM	11.5 nM	13 nM
GCAGUGCGAGGAUAUACAUGAGGAUCACCCAUGUGAGAAUAAGAAGUGAGGAAGAAAAGUAGAAGGCGCGUUGG [Mat - Exclusion 3 - Mod of Salish D66] (Eterna round: R96, puzzle: Exclusion 3)	103 nM	52.6 nM	49.5 nM	–	–	–
GCAGUGCGAGGAUAUACAUGAGGAUCACCCAUGUGAGAAUAAGAAGUGAGGAAGAAAAGUAGAAGGCGCGUUGG [Mat - Exclusion 3 - Mod of Salish D66] (puzzle: Exclusion 3)	–	–	–	77.5 nM	36.4 nM	59.6 nM
GCAGUUCGAGUUAGGAUAUGAUUAAAAUUCGGAUAUCAGAAGGAACUUGAGGAUCACCCAAGUAUAGAUGUUGC [JR_BMEx4_Sub059] (Eterna round: R97, puzzle: Brourd's mod of Exclusion 4)	42.1 nM	17.1 nM	–	–	–	–
GCAUGUUAUGUCAGGAUAUACCUAUGGAUACAUAGGUAGAAGGGACAUGAGGAUCACCCAUGUCCUAACCAUGC [Fiskers BMX 4 - 22] (puzzle: Brourd's mod of Exclusion 4)	–	–	–	–	11.4 nM	–
GCCAGAGCAGGAUAUUCAAUAUCUCACAUGAGGAUCACCCAUGUCCAGCGAAAGCUGGAGGGAGAAGGGCUCUGGC [Fiskers Ex 5 - 9] (puzzle: Exclusion 5)	–	–	–	42.1 nM	57.3 nM	61.6 nM
GCCAUGUGAGGAUAUGUGGUCGAAUAUGAAAGUGAUUGACCAUAGAAGGCACAUGAGGAUCACCCAUGUCCUUU [Eternabot (L2) Solution 64] (Eterna round: R97, puzzle: Exclusion 4)	131 nM	27.3 nM	–	–	–	–
GCCCGGGCAGGAUAUACAAGCUUGAGCUGAAAAGUUCGAGUACAUGAGGAUCACCCAUGUAGAAGGGCCCGGGC [-37.5, -35.6 kcal, A 28% 1 bis] (Eterna round: R97, puzzle: Exclusion 2)	29.4 nM	18.7 nM	–	–	–	–
GCCGAAAGUGUGAGGAUAUACCUAUGGAUACAUAGGUAGAAGGCACAUGAGGAUCACCCAUGUUCCUAAUCGGC [Eli bmx4 4.18] (Eterna round: R97, puzzle: Brourd's mod of Exclusion 4)	306 nM	103 nM	–	–	–	–
GCCGAUUAAGUGAGGAUAUACCUAUGGAUACAUAGGUAGAAGGUACAUGAGGAUCACCCAUGUUCCUUAACGGC [Fiskers BMX 4 - 8] (puzzle: Brourd's mod of Exclusion 4)	–	–	–	–	10.4 nM	–
GCCGGAGCAGGAUAUUCAAUAUCACACAUGAGGAUCACCCAUGUCCAGCGAAAGCUGGAGGGAGAAGGGCUCUGGC [Fiskers Ex 5 - 15] (puzzle: Exclusion 5)	–	–	–	–	56.1 nM	–

Sequence	apparent KD of MS2 coat protein (input ligand: FMN 200 uM)	apparent KD of MS2 coat protein (input ligand: none)	apparent KD of MS2 coat protein [1]	apparent KD of MS2 coat protein [2]	apparent KD of MS2 coat protein [3]	apparent KD of MS2 coat protein [4]
GCCGUAAGUGUGAGGAUAUACCUAUGGAUACAUAGGUAGAAGGCACAUGAGGAUCACCCAUGUUCUCAAUCGGC [Eli BMX r4m5] (Eterna round: R97, puzzle: Brourd's mod of Exclusion 4)	667 nM	125 nM	–	–	–	–
GCCUACGCAGGAUAUGUCCAGGGAAACAUGAGGAUCACCCAUGUGGAGUGGACUCGGGUUGCAGAAGGGCGGGCAC [Eternabot (Original) Solution 3] (Eterna round: R97, puzzle: Exclusion 5)	21.2 nM	16 nM	–	–	–	–
GCCUUACCGGUCAGGAUAUACAUUCGUCACUCCUUGUAGAAGGGACAUGAGGAUCACCCAUGUACAUUACAUUC [alecazam41] (Eterna round: R97, puzzle: Brourd's mod of Exclusion 4)	22 nM	26.1 nM	–	–	–	–
GCCUUAUCCGUCAGGAUAUACAGCCGCUCGUUGUUGUAGAAGGGACAUGAGGAUCACCCAUGUACGUACCAUUG [alecazam4] (Eterna round: R97, puzzle: Brourd's mod of Exclusion 4)	27.2 nM	22.7 nM	–	–	–	–
GCCUUAUCUGUCAGGAUAUACAAUAAAAUUUUUUUGUAGAAGGGACAUGAGGAUCACCCAUGUACAUUACAUUG [alecazam22] (Eterna round: R97, puzzle: Brourd's mod of Exclusion 4)	315 nM	49.7 nM	–	–	–	–
GCGAAAACAAGCAAGUGAAACAUGAGGAUCACCCAUGUCCUCAUUUGCUCGUCUUAUAAAAGCUAUCGAAAGAUAGC [Mat - Sensor v3 - turn-off var 1 - Eli Mod - D49] (puzzle: Sensor v3, turn-off variant 1)	–	–	–	9.41 nM	205 nM	9.78 nM
GCGCGAAGGUAGGAUAUCCGGCGAUCUUCCGUCGGAGAAGGACCCACAUGAGGAUCACCCAUGUGGUGAUCCUG [eternacac ex6r4 sub13] (Eterna round: R97, puzzle: Exclusion 6)	12 nM	23.9 nM	–	–	–	–
GCGCGAAGGUAGGAUAUCGACGGAUCUUCCGGCCGAGAAGGACCCACAUGAGGAUCACCCAUGUGGUGAUCCUG [eternacac ex6r4 sub10] (Eterna round: R97, puzzle: Exclusion 6)	17.5 nM	16.5 nM	–	–	–	–
GCGCGGUGAGGAUAUGCGGCGCGCGGGCGCGGGCGGGCGCGGCAGAAGGCACAUGAGGAUCACCCAUGUGGGCG [Prefect Exclusion4] (Eterna round: R97, puzzle: Exclusion 4)	109 nM	24.2 nM	–	–	–	–
GCGCUGUGAGGAUAUUAGUAGUAGAUAAAAUAAACUAUUACUGAGAAGGCACAUGAGGAUCACCCAUGUUGCGC [Eli x4 4.04] (Eterna round: R97, puzzle: Exclusion 4)	24.7 nM	19.6 nM	–	–	–	–
GCGGACAAGAUAUAAAUAUCAGAGACAUGAGGAUCACCCAUGUAGGAUAUCGAUUCGAAACGAAUCGAGAAGGGCAUAGUCCGC [JL denovo 1] (Eterna round: R96, puzzle: Exclusion NG 3)	18.8 nM	18.7 nM	13.8 nM	–	–	–
GCGGUACAUGAGGAUCACCCAUGUCAGGAUAUCCGCUGUUUGUUAAUAAACAAGCGGUGGAGAAGGGACUUCGC [-26.2, -25.5 kcal, 27% A] (Eterna round: R97, puzzle: Exclusion 1)	35.2 nM	31.5 nM	–	–	–	–
GCGUGACAUGAGGAUCACCCAUGUGAGGAUAUCUGGAUAAUUUUUAUUUUAGAUAUCCAGAGAAGGCACAUGCU [Ex1-3: 2Z] (puzzle: Exclusion 1)	–	–	–	–	62.4 nM	–
GCUAACCGAGGAUAUACAUGAGGAUCACCCAUGUUCGAUAUCCUCAUUAGAACUACAUGUAGAAGGCGGUAAGC [Eternabot (Original) Solution 2] (Eterna round: R97, puzzle: Exclusion 3)	15.2 nM	13.8 nM	–	–	–	–
GCUAAGGUAGGAUAUUGCGACGUGAACAUGAGGAUCACCCAUGUCUGGUCUGACAGGCAUCAAGAAGGGCCAGUCU [Eternabot (L2) Solution 30] (Eterna round: R97, puzzle: Exclusion 5)	49.7 nM	62.7 nM	–	–	–	–
GCUAGGAAUGUCAGGAUAUGCAGAUCCUUGGAUCUGCAGAAGGGACAUGAGGAUCACCCAUGUGCUAACCUAGC [Mat - Exclusion 4 - JL Mod - D7] (Eterna round: R97, puzzle: Brourd's mod of Exclusion 4)	110 nM	24.3 nM	–	–	–	–
GCUAUGCAAGGAUAUACAAGAUUAUGACAAGCGUGGAAACGACAUGAGGAUCACCCAUGUAGAAGGUGUUAUGC [Eternabot (L2) Solution 56] (Eterna round: R97, puzzle: Exclusion 2)	58.1 nM	65.5 nM	–	–	–	–
